Assay results: article PMC10281526, “Polydom/SVEP1 binds to Tie1 and promotes migration of lymphatic endothelial cells” (The Journal of Cell Biology, 2023)

Columns and labels:
[1] = target: recombinant Tie1 extracellular domain, Fc fusion protein (UniProt P35590)
Tie2 = target: T1, Tie2 (Homo sapiens (Human), UniProt Q02763); assay: solid-phase ELISA, Tie-Fc dimers on coated SVEP1
T1 chain: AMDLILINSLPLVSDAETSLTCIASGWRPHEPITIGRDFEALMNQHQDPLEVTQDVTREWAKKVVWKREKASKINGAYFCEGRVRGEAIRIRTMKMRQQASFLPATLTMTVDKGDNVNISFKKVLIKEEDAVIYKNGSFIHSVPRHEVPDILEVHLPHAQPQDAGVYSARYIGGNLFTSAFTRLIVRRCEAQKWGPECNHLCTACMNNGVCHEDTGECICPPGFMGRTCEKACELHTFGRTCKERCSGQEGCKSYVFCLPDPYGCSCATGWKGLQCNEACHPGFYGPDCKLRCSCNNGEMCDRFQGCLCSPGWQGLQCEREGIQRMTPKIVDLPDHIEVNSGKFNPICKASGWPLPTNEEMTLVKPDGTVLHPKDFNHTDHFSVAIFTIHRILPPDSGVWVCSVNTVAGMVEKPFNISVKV

[2] = target: T2, recombinant full-length mouse Polydom (mouse, UniProt A2AVA0 18-3567); assay: ELISA; reverse solid-phase binding assay, titration: full-length Polydom coated (10 nM by the legend), serially diluted Tie1-Fc or Tie2-Fc in solution, detected with HRP anti-human IgG against the Fc tag; apparent dissociation constant; conditions: both partners purified
T2 construct: Polydom (SVEP1), mouse, full length; expression vector as in Sato-Nishiuchi et al., 2012; The construct is described in Sato-Nishiuchi et al., 2012; also called SVEP1; full-length Polydom
T2 sequence (A2AVA0 18-3567): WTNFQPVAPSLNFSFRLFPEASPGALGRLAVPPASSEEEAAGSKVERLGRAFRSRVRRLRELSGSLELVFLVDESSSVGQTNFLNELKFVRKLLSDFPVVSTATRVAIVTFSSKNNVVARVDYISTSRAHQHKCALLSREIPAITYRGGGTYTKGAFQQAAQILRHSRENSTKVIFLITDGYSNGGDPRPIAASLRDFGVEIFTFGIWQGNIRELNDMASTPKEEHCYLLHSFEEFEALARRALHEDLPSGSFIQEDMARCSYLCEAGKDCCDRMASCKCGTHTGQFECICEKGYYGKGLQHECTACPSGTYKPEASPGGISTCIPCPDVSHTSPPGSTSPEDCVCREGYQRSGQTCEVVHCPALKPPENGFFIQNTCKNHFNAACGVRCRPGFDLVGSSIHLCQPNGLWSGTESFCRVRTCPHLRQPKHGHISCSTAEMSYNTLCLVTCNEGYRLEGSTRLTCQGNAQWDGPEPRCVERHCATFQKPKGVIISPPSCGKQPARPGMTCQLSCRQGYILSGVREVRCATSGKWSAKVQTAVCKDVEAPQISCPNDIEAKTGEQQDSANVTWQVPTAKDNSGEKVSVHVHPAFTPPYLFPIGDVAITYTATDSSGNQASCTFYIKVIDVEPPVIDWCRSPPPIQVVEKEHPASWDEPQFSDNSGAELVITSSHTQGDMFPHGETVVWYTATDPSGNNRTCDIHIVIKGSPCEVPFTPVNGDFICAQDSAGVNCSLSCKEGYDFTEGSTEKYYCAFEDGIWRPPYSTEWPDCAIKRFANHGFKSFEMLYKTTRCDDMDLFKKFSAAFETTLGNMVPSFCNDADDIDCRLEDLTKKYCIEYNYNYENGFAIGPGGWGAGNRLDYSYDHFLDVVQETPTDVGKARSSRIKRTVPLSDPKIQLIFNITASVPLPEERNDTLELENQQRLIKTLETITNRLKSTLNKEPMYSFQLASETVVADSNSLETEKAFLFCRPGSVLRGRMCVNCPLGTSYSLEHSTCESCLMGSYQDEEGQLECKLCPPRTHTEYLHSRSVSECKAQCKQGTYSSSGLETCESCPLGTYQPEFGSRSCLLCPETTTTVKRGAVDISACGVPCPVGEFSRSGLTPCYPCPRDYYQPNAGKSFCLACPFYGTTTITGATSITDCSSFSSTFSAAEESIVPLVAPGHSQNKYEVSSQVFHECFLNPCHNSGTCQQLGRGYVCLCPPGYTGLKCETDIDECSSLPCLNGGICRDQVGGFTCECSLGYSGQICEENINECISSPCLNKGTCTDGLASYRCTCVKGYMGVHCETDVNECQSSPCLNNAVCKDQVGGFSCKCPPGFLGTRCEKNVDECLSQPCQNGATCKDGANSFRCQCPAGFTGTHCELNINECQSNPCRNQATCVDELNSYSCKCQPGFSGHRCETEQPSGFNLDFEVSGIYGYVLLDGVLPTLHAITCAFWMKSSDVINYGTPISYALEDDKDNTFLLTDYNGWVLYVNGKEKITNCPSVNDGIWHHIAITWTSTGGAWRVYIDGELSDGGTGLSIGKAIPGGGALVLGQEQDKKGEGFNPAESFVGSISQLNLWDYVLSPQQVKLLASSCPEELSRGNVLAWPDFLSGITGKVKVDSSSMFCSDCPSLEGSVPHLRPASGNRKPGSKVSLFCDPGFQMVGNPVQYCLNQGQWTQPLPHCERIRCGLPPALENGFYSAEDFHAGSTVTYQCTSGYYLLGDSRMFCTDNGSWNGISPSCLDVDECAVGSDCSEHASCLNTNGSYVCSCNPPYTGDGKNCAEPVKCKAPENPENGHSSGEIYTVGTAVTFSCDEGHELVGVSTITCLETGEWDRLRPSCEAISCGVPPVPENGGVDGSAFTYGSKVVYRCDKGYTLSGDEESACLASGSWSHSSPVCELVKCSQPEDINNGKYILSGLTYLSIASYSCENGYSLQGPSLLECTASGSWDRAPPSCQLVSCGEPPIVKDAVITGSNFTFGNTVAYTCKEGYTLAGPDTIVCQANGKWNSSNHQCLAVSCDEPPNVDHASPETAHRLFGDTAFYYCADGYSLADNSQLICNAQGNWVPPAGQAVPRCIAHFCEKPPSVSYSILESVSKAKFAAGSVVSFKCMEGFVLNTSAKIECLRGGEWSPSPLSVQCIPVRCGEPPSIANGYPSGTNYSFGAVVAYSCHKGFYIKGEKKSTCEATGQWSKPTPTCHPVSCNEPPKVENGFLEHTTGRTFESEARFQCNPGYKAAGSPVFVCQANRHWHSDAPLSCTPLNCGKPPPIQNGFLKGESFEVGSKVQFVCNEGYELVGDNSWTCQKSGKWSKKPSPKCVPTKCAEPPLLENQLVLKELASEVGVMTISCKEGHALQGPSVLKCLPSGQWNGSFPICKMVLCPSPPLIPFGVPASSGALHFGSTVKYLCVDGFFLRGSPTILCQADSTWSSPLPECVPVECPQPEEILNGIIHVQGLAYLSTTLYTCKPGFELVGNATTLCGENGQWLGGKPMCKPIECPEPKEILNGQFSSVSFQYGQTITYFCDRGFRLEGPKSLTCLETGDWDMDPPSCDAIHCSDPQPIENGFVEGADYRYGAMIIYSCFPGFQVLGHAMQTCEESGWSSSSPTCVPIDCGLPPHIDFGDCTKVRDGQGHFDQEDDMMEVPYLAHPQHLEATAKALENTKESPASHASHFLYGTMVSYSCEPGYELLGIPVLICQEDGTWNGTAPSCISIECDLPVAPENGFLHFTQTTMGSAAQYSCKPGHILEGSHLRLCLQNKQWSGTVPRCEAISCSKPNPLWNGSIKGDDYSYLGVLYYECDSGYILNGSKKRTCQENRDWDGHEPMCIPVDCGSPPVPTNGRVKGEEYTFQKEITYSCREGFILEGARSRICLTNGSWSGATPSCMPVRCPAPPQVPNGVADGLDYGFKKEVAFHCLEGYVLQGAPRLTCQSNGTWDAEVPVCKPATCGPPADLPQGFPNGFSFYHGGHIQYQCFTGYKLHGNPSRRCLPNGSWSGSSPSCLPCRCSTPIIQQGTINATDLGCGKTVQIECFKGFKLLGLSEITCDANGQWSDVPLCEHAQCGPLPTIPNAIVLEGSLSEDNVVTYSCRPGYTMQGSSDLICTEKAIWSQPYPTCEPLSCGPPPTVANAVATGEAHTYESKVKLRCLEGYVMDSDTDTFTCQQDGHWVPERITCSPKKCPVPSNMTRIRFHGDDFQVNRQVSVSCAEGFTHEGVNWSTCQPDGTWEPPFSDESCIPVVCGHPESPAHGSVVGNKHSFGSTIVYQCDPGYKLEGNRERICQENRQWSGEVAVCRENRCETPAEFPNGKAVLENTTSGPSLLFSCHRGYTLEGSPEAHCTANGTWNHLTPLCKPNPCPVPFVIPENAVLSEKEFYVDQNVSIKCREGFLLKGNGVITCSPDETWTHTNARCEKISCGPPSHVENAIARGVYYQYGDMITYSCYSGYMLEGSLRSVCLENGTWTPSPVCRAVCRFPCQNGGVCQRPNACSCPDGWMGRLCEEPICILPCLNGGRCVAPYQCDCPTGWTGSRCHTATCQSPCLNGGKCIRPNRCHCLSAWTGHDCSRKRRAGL

“full-length Polydom E2567A mutant, A2AVA0 18-3567” gave a Transwell migration of human dermal LECs toward Polydom/E2567A (1 μg/ml) in the lower chamber, reduction compared with control Polydom [1] of 80%.

B1: SVEP1 (protein)
chain: DAIHCSDPQPIENGFVEGADYRYGAMIIYSCFPGFQVLGHAMQTCEESGWSSSSPTCVPID
In the case of B1, the Kd (Tie2) is reported as > 500 nM.

B2: recombinant Tie1 extracellular domain, Fc fusion protein (Fc fusion, UniProt P35590 22-759, looked up)
chain: AVDLTLLANLRLTDPQRFFLTCVSGEAGAGRGSDAWGPPLLLEKDDRIVRTPPGPPLRLARNGSHQVTLRGFSKPSDLVGVFSCVGGAGARRTRVIYVHNSPGAHLLPDKVTHTVNKGDTAVLSARVHKEKQTDVIWKSNGSYFYTLDWHEAQDGRFLLQLPNVQPPSSGIYSATYLEASPLGSAFFRLIVRGCGAGRWGPGCTKECPGCLHGGVCHDHDGECVCPPGFTGTRCEQACREGRFGQSCQEQCPGISGCRGLTFCLPDPYGCSCGSGWRGSQCQEACAPGHFGADCRLQCQCQNGGTCDRFSGCVCPSGWHGVHCEKSDRIPQILNMASELEFNLETMPRINCAAAGNPFPVRGSIELRKPDGTVLLSTKAIVEPEKTTAEFEVPRLVLADSGFWECRVSTSGGQDSRRFKVNVKVPPVPLAAPRLLTKQSRQLVVSPLVSFSGDGPISTVRLHYRPQDSTMDWSTIVVDPSENVTLMNLRPKTGYSVRVQLSRPGEGGEGAWGPPTLMTTDCPEPLLQPWLEGWHVEGTDRLRVSWSLPLVPGPLVGDGFLLRLWDGTRGQERRENVSSPQARTALLTGLTPGTHYQLDVQLYHCTLLGPASPPAHVLLPPSGPPAPRHLHAQALSDSEIQLTWKHPEALPGPISKYVVEVQVAGGAGDPLWIDVDRPEETSTIIRGLNASTRYLFRMRASIQGLGDWSNTVEESTLGNGLQAEGPVQESRAAEEGLDQ
notes: Tie1, extracellular domain, expressed as Fc fusion protein; The Fc tag was detected with an anti-human IgG antibody; also called Tie1 with an Fc tag; source: bought: R&D Systems
Work on B2 yielded a Kd [2] of 43 ± 4 nM.
